Test results published in the supplement of paper PMC10126150.
± gives the standard deviation of the averaged measurements.
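Also: ATP exposure 15 min at 22 °C before imaging.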

The sequences below were run on ATP (assay: switch fluorescence ratio, 500 uM ATP over buffer (Cy3 cluster intensity, sum of 5 cycles each) (fold (ratio)); higher = stronger signal-on switching upon ATP binding; sequences stand for … in TCGTCGGCAGCGTCAGATGTGTATAAGAGACAGTTTTTTTTTTTTTTTTTTTTTTTTT…TC). Conditions: aptamer strand: ATP DNA aptamer (quencher-CACCTGGGGGAGTATTGCGGAGGAAGG + anchor), 100 nM annealed; ATP concentration: 500 uM.
How it was run: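 After annealing to 100 nM quencher-labelled ATP aptamer, Cy3-labelled switching-strand clusters on a modified Illumina MiSeq flow-cell were imaged in selection buffer. A second image followed after 15 min with 500 uM ATP at 22 °C, and five such buffer/ATP cycles were done, each separated by NaOH stripping and re-annealing. The fluorescence ratio, averaged per switch-domain sequence, is summed target-cycle over summed buffer-cycle Cy3 intensity per cluster, with clusters outside 100-1000 RFU excluded.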
Work on CGGGTCGGGC yielded a switch fluorescence ratio of 0.991 ± 0.013.
In the case of TGCTGAGTAG, the switch fluorescence ratio is reported as 0.9785 ± 0.0036.
CCGGATTATG gave a switch fluorescence ratio of 1.05 ± 0.016.
With GTGGTATCAC the switch fluorescence ratio was 1 ± 0.011.
GCGGGGGTCC gave a switch fluorescence ratio of 1.17 ± 0.31.
With TGGTTGCAGG the switch fluorescence ratio was 1.05 ± 0.042.
For GGTTACCTTC, the switch fluorescence ratio was 1.356 ± 0.0068.
In the case of GGGGGGTATT, the switch fluorescence ratio is reported as 0.987 ± 0.037.
TATGAATTGG was tested, and the switch fluorescence ratio was 1 ± 0.018.
GACGAAGCGG gave a switch fluorescence ratio of 2.41 ± 0.047.
With AAATAATTTC the switch fluorescence ratio was 1 ± 0.027.
In the case of TCCAGGGAAT, the switch fluorescence ratio is reported as 1.04 ± 0.029.
Sequence GAACTGGGGC has a switch fluorescence ratio of 0.942 ± 0.076.
Work on GCTGGGTCTT yielded a switch fluorescence ratio of 1.03 ± 0.023.
In the case of TAAATGGCCA, the switch fluorescence ratio is reported as 0.9798 ± 0.0051.
For AGGGCTGTTC, the switch fluorescence ratio was 1.063 ± 0.0045.
For TACTATACGA, the switch fluorescence ratio was 1.367 ± 0.0015.
GGGTGGCGAC gave a switch fluorescence ratio of 0.988 ± 0.014.
ATGAAAGGTT gave a switch fluorescence ratio of 0.975 ± 0.021.
In the case of TCTACGGGGG, the switch fluorescence ratio is reported as 1.032 ± 0.0024.
TTGTTCTAAC was tested, and the switch fluorescence ratio was 1.0276 ± 0.00054.
With GGGGCGGAGG the switch fluorescence ratio was 0.987 ± 0.047.
GAAATCATCA showed a switch fluorescence ratio of 0.96 ± 0.025.
In the case of AGTTGGACAG, the switch fluorescence ratio is reported as 1.02 ± 0.012.
With TTTCTTCGCT the switch fluorescence ratio was 1.01 ± 0.046.
In the case of ATTAGTTGTG, the switch fluorescence ratio is reported as 0.976 ± 0.011.
GAGAATCGGG showed a switch fluorescence ratio of 0.9564 ± 0.0089.
In the case of TGTTTAGTTT, the switch fluorescence ratio is reported as 1.01 ± 0.033.
With AGTTTTTGTC the switch fluorescence ratio was 0.953 ± 0.048.
With GGGGGGACGC the switch fluorescence ratio was 1.02 ± 0.013.
With GATTGACGTG the switch fluorescence ratio was 0.957 ± 0.08.
Sequence CACGGGGGGT has a switch fluorescence ratio of 1.02 ± 0.052.
In the case of TCTGGGTTAT, the switch fluorescence ratio is reported as 0.988 ± 0.033.
Work on CGTAAAGCAG yielded a switch fluorescence ratio of 1.01 ± 0.061.
Work on TTTGAAAACG yielded a switch fluorescence ratio of 1.02 ± 0.033.
Work on TCTTTAATGG yielded a switch fluorescence ratio of 1.01 ± 0.042.
Sequence AAGAGGATGG has a switch fluorescence ratio of 0.979 ± 0.011.
GGTGCTTGGT showed a switch fluorescence ratio of 0.989 ± 0.018.
TGAGATATTG gave a switch fluorescence ratio of 0.997 ± 0.018.
AAACAGAATG gave a switch fluorescence ratio of 0.975 ± 0.014.
For AAGCCGCTCG, the switch fluorescence ratio was 1 ± 0.015.
CCGGTGGGGA gave a switch fluorescence ratio of 1.12 ± 0.064.
In the case of TTACTTCTGG, the switch fluorescence ratio is reported as 0.9796 ± 0.0017.
Work on TGGCTGACTT yielded a switch fluorescence ratio of 1.01 ± 0.016.
In the case of TATACTGGGG, the switch fluorescence ratio is reported as 1.03 ± 0.059.
TAGGGGTTGC was tested, and the switch fluorescence ratio was 1.1 ± 0.11.
ATCGTACATA showed a switch fluorescence ratio of 1.12 ± 0.064.
For GATTTTCGTC, the switch fluorescence ratio was 0.996 ± 0.032.
In the case of AGTTGAGATG, the switch fluorescence ratio is reported as 0.971 ± 0.033.
Sequence TGATTTTGGG has a switch fluorescence ratio of 0.997 ± 0.035.
For GAATCGTTTT, the switch fluorescence ratio was 0.9553 ± 0.0068.
GGGTGAAGGT gave a switch fluorescence ratio of 0.9866 ± 0.0047.
TTCGAGGAGA was tested, and the switch fluorescence ratio was 1.01 ± 0.011.
With ATTTTTGTAG the switch fluorescence ratio was 1.01 ± 0.017.
GTTGAAATAA was tested, and the switch fluorescence ratio was 1 ± 0.047.
With GGGGTCAGGG the switch fluorescence ratio was 1.02 ± 0.026.
CTCAGGCAAT showed a switch fluorescence ratio of 2.61 ± 0.45.
In the case of TGAAGGTACA, the switch fluorescence ratio is reported as 1.034 ± 0.0031.
With TGTAATTTCG the switch fluorescence ratio was 1.03 ± 0.04.
In the case of GAGAGTTGCG, the switch fluorescence ratio is reported as 1.04 ± 0.027.
ACATGAGGGA was tested, and the switch fluorescence ratio was 1.02 ± 0.067.
Sequence CAAAAAAGGG has a switch fluorescence ratio of 1.02 ± 0.021.
For TTATCAGTTT, the switch fluorescence ratio was 1.03 ± 0.062.
GAGGTTGTGG was tested, and the switch fluorescence ratio was 0.973 ± 0.06.
For TAAAAAAAGC, the switch fluorescence ratio was 1.031 ± 0.0015.
Work on TCCATCGCTT yielded a switch fluorescence ratio of 1.6 ± 0.79.
GGCGGGGGTG showed a switch fluorescence ratio of 1.04 ± 0.065.
For CAGGGAATAG, the switch fluorescence ratio was 1.07 ± 0.049.
GCACCTGGGC gave a switch fluorescence ratio of 0.991 ± 0.039.
With AAGCCAGGGG the switch fluorescence ratio was 1.46 ± 0.0077.
AAGTAACTC gave a switch fluorescence ratio of 1.03 ± 0.027.
TTTTCAACAC showed a switch fluorescence ratio of 1.04 ± 0.033.
With GGTTAGGGGA the switch fluorescence ratio was 0.994 ± 0.036.
For GGACCGGGGT, the switch fluorescence ratio was 0.966 ± 0.034.
AGCGTGATAC gave a switch fluorescence ratio of 4.4 ± 0.36.
In the case of CAGGCAGATG, the switch fluorescence ratio is reported as 1.01 ± 0.015.
CAAGGTTATA was tested, and the switch fluorescence ratio was 1 ± 0.022.
GAGGAAAGGG showed a switch fluorescence ratio of 0.989 ± 0.013.
Work on TTTAGTAAAC yielded a switch fluorescence ratio of 1.08 ± 0.11.
In the case of TATGGGCCAG, the switch fluorescence ratio is reported as 0.996 ± 0.02.
In the case of TTTGAATTTT, the switch fluorescence ratio is reported as 0.998 ± 0.024.
In the case of ATTGACTCTT, the switch fluorescence ratio is reported as 1.003 ± 0.0074.
TTCCCACGGG showed a switch fluorescence ratio of 1.64 ± 0.31.
Work on CCTTCGAGG yielded a switch fluorescence ratio of 1.15 ± 0.2.
Sequence TGTTACCTGA has a switch fluorescence ratio of 1.058 ± 0.01.
CAGATTGATG was tested, and the switch fluorescence ratio was 0.983 ± 0.043.
Work on GGTGGTAGGC yielded a switch fluorescence ratio of 1 ± 0.046.
For GGCTCAGAGA, the switch fluorescence ratio was 1.004 ± 0.0045.
In the case of GTATAATTGT, the switch fluorescence ratio is reported as 0.984 ± 0.019.
For GTAAGAATGG, the switch fluorescence ratio was 1.03 ± 0.03.
Work on CTGGGGTTTG yielded a switch fluorescence ratio of 0.956 ± 0.019.
With GTGAAGTATT the switch fluorescence ratio was 0.983 ± 0.033.
AGGGGGAGTT gave a switch fluorescence ratio of 0.979 ± 0.025.
For GATGGCAAGG, the switch fluorescence ratio was 1.04 ± 0.043.
AGGTTTTCTC showed a switch fluorescence ratio of 1.02 ± 0.052.
CGTGTTGGG showed a switch fluorescence ratio of 1 ± 0.028.
With AGTGGGATGG the switch fluorescence ratio was 1.03 ± 0.037.
With TAATAGTGGG the switch fluorescence ratio was 1.03 ± 0.041.
ATATTTGCTT gave a switch fluorescence ratio of 1 ± 0.025.
TTTCGTATAC was tested, and the switch fluorescence ratio was 2.1 ± 0.041.
